In PMC4373775 one finds binding data, which are given here for 1 sequence.

Data set [1] concerns the target T1, ParB_Ala S5A;T32A;T41A;T53A;T110A;T195A;S239A;T254A;T300A;T303A (Mycobacterium tuberculosis H37Rv) (UniProt P9WIJ9).
T1 sequence: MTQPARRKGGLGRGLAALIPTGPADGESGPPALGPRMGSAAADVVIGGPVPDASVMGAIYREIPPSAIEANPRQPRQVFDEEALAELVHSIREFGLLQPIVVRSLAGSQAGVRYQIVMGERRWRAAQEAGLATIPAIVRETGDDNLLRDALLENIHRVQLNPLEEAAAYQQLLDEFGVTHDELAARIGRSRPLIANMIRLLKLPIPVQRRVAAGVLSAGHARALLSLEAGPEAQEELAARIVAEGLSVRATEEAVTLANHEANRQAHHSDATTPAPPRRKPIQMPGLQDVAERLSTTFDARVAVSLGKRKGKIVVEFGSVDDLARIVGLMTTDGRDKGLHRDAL
As to the kind of experiment: EMSA. For orientation: In EMSA bound probe runs differently from free probe, usually more slowly.

Data set [2] concerns the target T2, ParB_Asp S5D;T32D;T41D;T53D;T110D;T195D;S239D;T254D;T300D;T303D (Mycobacterium tuberculosis H37Rv) (UniProt P9WIJ9).
T2 sequence: T1 sequence with A5D, A32D, A41D, A53D, A110D, A195D, A239D, A254D, A300D, A303D
As to the kind of experiment: EMSA.

Positions count from the first letter of the chain named.

As to “GCGAGTGGAGGGACGGCGTGAGTGCTCCGTGGGGCCCGGTGGCCGCTGGACCGTCCGCGCTCGTAAGGTCGGGCCAGGCTTCAACTATCGAACCATTCCAGCGGGAAATGACACCACCGACACCGACGCCTGAGGCCGCGCACAATCCGACGATGAATGTTTCACGTGAAACATCGACAGAATTCGACACCCCCATCGGCGCTGCAGCAGAACGTGCGATGCG (double strand) [parS probe]”, the binding entry was “binds” in data set [1] and “binds more weakly” in data set [2].
